Reference: article PMC7494283 (Cell, 2020)

B1: S304 mAb (IgG1) (antibody, V domains shown)
VH: EVQLVESGGGLVQPGGSLRLSCAASGFTFSSYDMHWVRQTTGKGLEWVSTIGTAGDTYYPDSVKGRFTISREDAKNSLYLQMNSLRAGDTAVYYCARGDSSGYYYYFDYWGQGTLLTVSS
VL: DIEMTQSPSSLSAAVGDRVTITCRASQSIGSYLNWYQQKPGKAPKLLIYAASSLQSGVPSRFSGSGSGTDFTLTISSLQPEDFAIYYCQQSYVSPTYTFGPGTKVDIK
B2: S2A4 mAb (IgG1) (antibody, V domains shown)
VH: EVQLVESGGGLVQPGGSLRLSCAASGFTFSSYWMNWVRQAPGKGLEWVANIKQDGSEKYYVDSVKGRFTISRDNAKNSLFLQMNSLRAEDTAVYYCARVWWLRGSFDYWGQGTLVTVSS
VL: NFMLTQPHSVSESPGKTVTISCTGSSGSIASNYVQWYQQRPGSAPTTVIYEDNQRPSGVPDRFSGSIDSSSNSASLTISGLKTEDEADYYCQSYDSSNHVVFGGGTKLTVL
B3: S2H14 mAb (IgG1) (antibody, V domains shown)
VH: not shown
VL: NFMLTQPHSVSESPGKTVTISCTRSSGSIASNYVQWYQQRPGSSPTTVIYEDNQRPSGVPDRFSGSIDSSSNSASLTISGLKTEDEADYYCQSYDSSNQVFGGGTKLTVL

biological target: SARS-CoV RBD (SARS-CoV (human), isolate , UniProt P59594); experiment: ELISA

| Binder | binding result |
| --- | --- |
| B1 | binds |
| B2 | no binding |
| B3 | no binding |
